A short description of this series: soluble on expression in E. coli; label from the status in PepcDB or PDB records.
On to “MGSDKIHHHHHHVLVVVPEILDPKVDLVFKKVFGSQENKSILLSFLNAVLNWTGEQKIVDVKILNPYLEPESIDDSVGILDIKLQLENDDLVDVEMQIGNLGNMERRSTYYTCRMFGDQNISGGRYQDLNRVIAINVLDFTRIKNIERYHTKFRLRETQENIDLTDAIEIHFIELPKLRQEMASYTDPLDRWVVFLKGGWNMELLDRLAKEDPAIGQAKQVLEQMASNPRERELYELRRKAILDRNSALYEAKMEGKAEGKAEGQAIILLRLLKKKFGFMPVEMENRVMSMSAEKLQELAEAIFDLGTIDELNNFISR”, for which the “soluble on expression in E. coli” value is “not soluble”.
With “MGSDKIHHHHHHVNIQEQFLGSGSRGSYELHLVDRRPKDVLEQAEALPFWKQDYTQLDKGAFSGAVTSVSCQGIQIFREKMNRAVDQLASAPADTYVIGLPTMIEGEATWGMLPVKQDSLITLNKNTELLFRTSHCSEIAAAVISAQRLEEYAALVEWVDLREIMRKVKAVEQISSTIANRLMTSLVGGTRYISDVHESASVKHMWPNFEEDLMSTCLQALVQAKDSINHHYDHRIHRYIVNRVRDFTLLNSCCPLTISELCIELRVSRRTLNHAFLRVLGITPVAYMRNVRLHRVRAELQSAPDSVTSIANVATKWGFWHMSLFSRYYRELFGECPNKTLERTRLHKA” the entry was “not soluble”; with “MGSDKIHHHHHHVSEALLEQAVSDVMPTKLAIIMRGLPGSGKSYWVEQFITSQGIEQAIHIRQHGLFSTDRYFYQQGQYRFNPQKIGQYHQANLTAFIQALARKEPIVICDNTNIAKWEFMAYEAAAKALGYQVKVVLVGQPDNDQHQQLCAQRNQHQVSLAHIQKMAQLFEE”, “not soluble”.
With “MGSDKIHHHHHHWARTVWPRLYWFVEGKLYRWLQSFIAYWGYTAGYDVYEYGDDVTTYYRDERVLMMCNHQSTADVPTLMTVLQNKGVASRKTLWLMDVMFRWTPFGIIGNNHGDYFIQQGKATRDKELIRLKKHLHDVFWDRDRRWVILFPEGGFYYKRVESSQSYGKKNGFPHLLYTTLPRMGAVQAILEEVGPRTEDSDEPRERSNSKLKLLQDTVGAIREKKYVKGE” the entry was “not soluble”; with “MGSDKIHHHHHHYATVEPLHINRFDKDLFRLIDTGDTTLQPELIKQYPEMLDIIGKGILNLQTIETPGFFEKMRNYYSEPTLKGLYRDAITQYDSVEDIEKSLGYGFAYLKENFPSMQIPAIYMHVSGFNQNVLVGDSLLSLSIDKYMGKDYPLYQDFFYDSQKLKMQRGLVVPDYLAGWLMSEYPFAGKENVLLDRMIYEGKIKYLLSQALGVPDAAELMGYTEQAYNWCKDNEGTIWKAIIERKHLYTPDQLTTSQYFEDTPTIFPGNDAPGNIGTWIGWQIINQYIKETGSTPEALMQNNDAQEILTASKYKPL”, “not soluble”; with “MGSFQAVAPTRLYRMIADQIAGRIRAGDFPAGGRLPAERELAEQLQVSRASVREALIALEIEGYVEVRVGTGVFVAAPRADGDYGVAPAPQPGHTDIGPFDLLDTRLLLEPECASLAAQKASPAQIAAISSAHAAMSLSDSPGAHDQAFHGAIAAACGNAALAAAISHIWHLSATSPVFSRLEQHFVTTKVWEAAEREHERILAAIVDRDPIRARHAMHDHLVGILARLREDFGSGAIR”, “not soluble”.
Turning to “MGSRENLYFQGLEHHHHHHHMKIISKMLVGALALAVTNVYAAELMTKAEFEKVESQYEKIGDISTSNEMSTADAKEDLIKKADEKGADVLVLTSGQTDNKIHGTANIYKKK”, the “soluble on expression in E. coli” value is on record as “soluble”.
The value for “MGSSEVSIIPGLQKEEKAAVERRRLHVLKALKKLRIEADEAPVVAVLGSGGGLRAHIACLGVLSEMKEQGLLDAVTYLAGVSGSTWAISSLYTNDGDMEALEADLKHRFTRQEWDLAKSLQKTIQAARSENYSLTDFWAYMVISKQTRELPESHLSNMKKPVEEGTLPYPIFAAIDNDLQPSWQEARAPETWFEFTPHHAGFSALGAFVSITHFGSKFKKGRLVRTHPERDLTFLRGLWGSALGNTEVIREYIFDQLRNLTLKGLWRRAVANAKSIGHLIFARLLRLQESSQGEHPPPEDEGGEPEHTWLTEMLENWTRTSLEKQEQPHEDPERKGSLSNLMDFVKKTGICASKWEWGTTHNFLYKHGGIRDKIMSSRKHLHLVDAGLAINTPFPLVLPPTREVHLILSFDFSAGDPFETIRATTDYCRRHKIPFPQVEEAELDLWSKAPASCYILKGETGPVVMHFPLFNIDACGGDIEAWSDTYDTFKLADTYTLDVVVLLLALAKKNVRENKKKILRELMNVAGLYYPKDSARSCCLA” was “soluble”; that for “MGSSHHHHHHGGTGENLYFQGGSGATAQNANPECVGPESPQAGIAPSCQGCPNAAICASAPKGPDPDIPLIRERLAGVKHKVMVVSGKGGVGKSTMTKELAFALGARGLSVGLMDMDICGPSLPRLTGVRGEDAHQSAGGIEPVLVDENVTMMSMHYLLSDKNEAVLFRGPRKNGVIKMFLKDVIWGNLDVLLIDTPPGTSDEHITVNSLLQQTTNGVDGAVLITTPQRVAEADVRREVNFCQKAKLPILGLVENMSGFVCPGCHKESQIFPKEEGGEGRKEGAGVRLSREFDVPLWGEVPLDPQLMKACEEGISFSEYVEKSGMTSSTTLDALFTVADQLIASLGIQVE” was “not soluble”; that for “MGSSHHHHHHGGTGENLYFQGGSGLRQFIVPVRQTTQRAGLATPPLFGVQKCYVNMNRSVQTRWEIDSQTASQKRTEYDFDKEQWMKQMRFASMDCIMDPDITPIRYTSVAGVKKAFRRFVTMRKLMDRRPDFDPVQLKELFIHFKTLSHEKSPDCFKTLQRITTHGEADRILKEIKGRMNEDFAKKSWRSLKQQGAKSTYEMEVDSFDLVTCYMGQMSQEDWLQITYRCEFRQRESKEYDWETMMEYPVFEVRLGDGVKAPNTHPFIVVGVLKKDGTRYGKDSQDAADLRKQFDRTGRWF” was “not soluble”.
The value for “MGSSHHHHHHGKTIFVIVPTNEEQVAFLEALAKQDELNFDWQNPPTEPGQPVVILIPSDMVEWFLEMLKAKGIPFTVYVEEGGSENLYFQGGGGGGLQLKSHQRLAEKPRRDAFVPRAYTVEELAQFDGKKKPQVFVGVKGIIYNVSLEWYGPEGPYSAFAGCDSSRQLGKVIVGRDEINADWTTLAPEHLKTLHEWEERFHSKYPAVGWITDPNKNFVKRAASLSP” was “not soluble”.
The value for “MGSSHHHHHHGKTIFVIVPTNEEQVAFLEALAKQDELNFDWQNPPTEPGQPVVILIPSDMVEWFLEMLKAKGIPFTVYVEEGGSENLYFQGGGGGGPFRYQISEYFERQRDGVHVELRRKAVKYYAEMERMHRRQALVNLESIQDDNAPHRLSAVLSVESIQAGHLDQEYNYWYAHERDAIRAEKLMMEIRELKAKMPADSA” was “not soluble”; that for “MGSSHHHHHHSSGLVPRGSDYMFKLLLIGNSSVGKTSFLFRYADDSFTPAFVSTVGIDFKVKTVYRHDKRIKLQIWDTAGQERYRTITTAYYRGAMGFLLMYDIANQESFAAVQDWATQIKTYSWDNAQVILVGNKCDLEDERVVPAEDGRRLADDLGFEFFEASAKENINVKQVFERLVDVICEKMNE” was “soluble”; that for “MGSSHHHHHHSSGLVPRGSHMAPTEIKPEDDILGRARVRDTPELEAYYDDLAKIETGALWTVANDIEPWEPTPKSAPVHWKWSDLRREVLRAIDLVRPEDAGRRVVYLRNPQRKDVSAACGWLFSGIQTMKAGERAGAHRHAASALRFIMEGSGAYTIVDGHKVELGANDFVLTPNGTWHEHGILESGTECIWQDGLDIPLTNCLEANFYEVHPNDYQTTDIPLNDSPLTYGGPALLPQLDKWDKPYSPLLKYSWEPTYEALLNYAKASDGSPYDGLILRYTNPQTGGHPMLTMGASMQMLRPGEHTKAHRHTGNVIYNVAKGQGYSIVGGKRFDWSEHDIFCVPAWTWHEHCNTQERDDACLFSFNDFPVMEKLGFWAEQALEDNGGHQIVAD” was “soluble”.
For the sequence “MGSSHHHHHHSSGLVPRGSHMASMTGGQQGRDPFESYNPEFFLYDIFLKFCLKYIDGEICHDLFLLLGKYNILPYDTSNDSIYACTNIKHLDFINPFGVAAGFDKNGVCIDSILKLGFSFIEIGTITPRGQTGNAKPRIFRDVESRSIINSCGFNNMGCDKVTENLILFRKRQEEDKLLSKHIVGVSIGKNKDTVNIVDDLKYCINKIGRYADYIAINVSSPNTPGLRDNQEAGKLKNIILSVKEEIDNLEKNNIMNDEFLWFNTTKKKPLVFVKLAPDLNQEQKKEIADVLLETNIDGMIISNTTTQINDIKSFENKKGGVSGAKLKDISTKFICEMYNYTNKQIPIIASGGIFSGLDALEKIEAGASVCQLYSCLVFNGMKSAVQIKRELNHLLYQRGYYNLKEAIGRKHSKS”, the “soluble on expression in E. coli” value is given as “soluble”.
With “MGSSHHHHHHSSGLVPRGSHMGVKSLVPQELIEKIKLISPGTELRKALDDIINANFGALIFLVDDPKKYEDVIQGGFWLDTDFSAEKLYELSKMDGAIVLSEDITKIYYANVHLVPDPTIPTGETGTRHRTAERLAKQTGKVVIAVSRRRNIISLYYKNYKYVVNQVDFLISKVTQAISTLEKYKDNFNKLLSELEVLELENRVTLADVVRTLAKGFELLRIVEEIRPYIVELGEEGRLARMQLRELTEDVDDLLVLLIMDYSSEEVEEETAQNILQDFITRREPSPISISRVLGYDVQQAAQLDDVLVSARGYRLLKTVARIPLSIGYNVVRMFKTLDQISKASVEDLKKVEGIGEKRARAISESISSLKHRKTSE” the entry was “soluble”.
Regarding “MGSSHHHHHHSSGLVPRGSHMKARELDVPGAWEITPTIHVDSRGLFFEWLTDHGFRAFAGHSLDVRQVNCSVSSAGVLRGLHFAQLPPSQAKYVTCVSGSVFDVVVDIREGSPTFGRWDSVLLDDQDRRTIYVSEGLAHGFLALQDNSTVMYLCSAEYNPQREHTICATDPTLAVDWPLVDGAAPSLSDRDAAAPSFEDVRASGLLPRWEQTQRFIGEMRGTGSV”, the “soluble on expression in E. coli” value is reported as “soluble”.
The value for “MGSSHHHHHHSSGLVPRGSHMNKPIGVIDSGVGGLTVAKEIMRQLPNETIYYLGDIGRCPYGPRPGEQVKQYTVEIARKLMEFDIKMLVIACNTATAVALEYLQKTLSISVIGVIEPGARTAIMTTRNQNVLVLGTEGTIKSEAYRTHIKRINPHVEVHGVACPGFVPLVEQMRYSDPTITSIVIHQTLKRWRNSESDTVILGCTHYPLLYKPIYDYFGGKKTVISSGLETAREVSALLTFSNEHASYTEHPDHRFFATGDTTHITNIIKEWLNLSVNVERISVND” was “soluble”; that for “MGSSHHHHHHSSGLVPRGSHMQAATVVINRRALRHNLQRLRELAPASKMVAVVKANAYGHGLLETARTLPDADAFGVARLEEALRLRAGGITKPVLLLEGFFDARDLPTISAQHFHTAVHNEEQLAALEEASLDEPVTVWMKLDTGMHRLGVRPEQAEAFYHRLTQCKNVRQPVNIVSHFARADEPKCGATEKQLAIFNTFCEGKPGQRSIAASGGILLWPQSHFDWVRPGIILYGVSPLKDRSTGADFGCQPVMSLTSSLIAVREHKAGEPVGYGGTWVSERDTRLGVVAMGYGDGYPRAAPSGTPVLVNGREVPIVGRVAMDMICVDLGPQAQDKAGDPVILWGEGLPVERIAEMTKVSAYELITRLTSRVAMKYVD” was “soluble”; that for “MGSSHHHHHHSSGLVPRGSHMSVPLYGFTSICGRRPEMEDAVSTIPRFLQSSSGSMLDGRFDPQSAAHFFGVYDGHGGSQVANYCRERMHLALAEEIAKEKPMLCDGDTWLEKWKKALFNSFLRVDSEIESVAPETVGSTSVVAVVFPSHIFVANCGDSRAVLCRGKTALPLSVDHKPDREDEAARIEAAGGKVIQWNGARVFGVLAMSRSIGDRYLKPSIIPDPEVTAVKRVKEDDCLILASDGVWDVMTDEEACEMARKRILLWHKKNAVAGDASLLADERRKEGKDPAAMSAAEYLSKLAIQRGSKDNISVVVVDLKPRRKLK” was “soluble”.

The values above are taken from the DeepSol protein solubility set.
